In US20250043302A1, “MUTATED HYDROXYPHENYLPYRUVATE DIOXYGENASE POLYPEPTIDE, AND CODING GENE AND USE THEREOF” (BEIJING DABEINONG BIOTECHNOLOGY CO., LTD., priority 2021, published 2025):
Substitutions are numbered along the chain they refer to. Numbers in names are those of the source.

B1: AtHPPDm-F383Y-02: nucleotide sequence encoding Arabidopsis thaliana HPPD with F383Y; vector DBN11797 (nucleic acid)
DNA: ATGGGACATCAGAATGCTGCTGTATCAGAAAATCAAAATCATGATGATGGAGCCGCCTCCTCACCAGGGTTTAAGTTGGTTGGGTTCTCCAAGTTTGTACGGAAGAACCCAAAATCCGACAAGTTCAAGGTTAAACGCTTCCACCACATTGAATTCTGGTGCGGCGACGCCACCAATGTTGCTCGGCGTTTTTCATGGGGTTTAGGCATGAGATTCTCAGCAAAGAGTGACCTGAGCACCGGCAACATGGTTCATGCTAGCTATCTCTTAACATCTGGAGATTTGAGGTTTCTTTTCACGGCGCCGTACTCACCATCACTCTCCGCCGGCGAGATCAAACCCACCACGACTGCAAGCATACCTTCATTTGATCATGGTAGTTGCAGATCCTTCTTCTCGTCGCACGGCCTAGGGGTGCGCGCGGTCGCCATCGAAGTTGAAGATGCAGAATCAGCGTTTAGTATCAGCGTGGCAAATGGAGCTATTCCTTCCTCCCCTCCAATTGTCCTCAATGAGGCTGTAACTATTGCCGAGGTGAAGTTGTATGGAGATGTTGTGCTGAGATATGTTTCTTACAAGGCAGAGGACACTGAGAAATCTGAATTTTTGCCTGGTTTTGAAAGGGTCGAGGATGCTTCAAGTTTTCCTCTTGATTACGGCATACGACGGTTGGATCACGCGGTTGGAAATGTACCAGAACTTGGGCCGGCGCTCACTTATGTGGCTGGTTTCACTGGATTCCATCAATTTGCTGAGTTCACAGCTGATGATGTTGGGACTGCTGAAAGTGGGTTGAACTCTGCAGTCCTCGCCTCTAATGATGAAATGGTGCTCCTCCCGATCAACGAGCCTGTGCATGGCACCAAAAGGAAATCACAAATACAGACATATCTTGAGCACAATGAAGGTGCAGGGCTTCAACATCTTGCACTGATGTCTGAAGACATTTTCCGTACGCTGAGAGAGATGAGGAAGAGAAGTAGTATTGGTGGATTTGACTTCATGCCTTCTCCCCCACCAACTTACTACCAGAACTTGAAGAAGAGGGTTGGTGATGTGCTATCTGATGACCAGATCAAGGAGTGTGAAGAATTGGGCATTCTTGTTGATCGGGACGACCAAGGAACATTACTGCAGATATTTACAAAACCACTTGGTGACCGCCCCACTATTTATATTGAGATCATACAAAGAGTCGGCTGCATGATGAAGGATGAGGAAGGAAAAGCATATCAATCTGGTGGTTGTGGCGGCTTTGGGAAAGGAAACTTCTCTGAGCTGTTCAAATCCATCGAGGAGTATGAGAAGACCTTGGAGGCCAAGCAGCTCGTGGGTTGA
modifications: AtHPPDm-F383Y-02 Nucleotide Sequence
notes: vector DBN11797
B2: AtHPPDm-F372A-F383Y-02: nucleotide sequence encoding Arabidopsis thaliana HPPD with F372A+F383Y; vector DBN11798 (nucleic acid)
DNA: B1 DNA with T1141G, T1142C, T1143C
modifications: AtHPPDm-F372A-F383Y-02 Nucleotide Sequence
notes: vector DBN11798

What was measured:
Type in all cases: in vivo
[1] = tested on: Arabidopsis thaliana T1 plants; test: Topramezone tolerance of transgenic Arabidopsis thaliana T1 plants (spray, bleached leaf area grade, damage score); conditions: Table 13; for Classification and statistics of the grade of pesticide damage Grade 0: number of plants at grade 0; for Classification and statistics of the grade of pesticide damage Grade 1: number of plants at grade 1; for Classification and statistics of the grade of pesticide damage Grade 2: number of plants at grade 2; for Classification and statistics of the grade of pesticide damage Grade 3: number of plants at grade 3; for Scores: pesticide damage score
In short: (§1)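 Damage graded 0–3 from the proportion of bleached leaf area 7 days after spraying. Plants were glufosinate-selected T1 lines, 18 days after sowing, plus vector and wild-type controls. Rates: mesotrione 52.5–420, isoxaflutole 35–280, topramezone 25–200 g ai/ha, with water (0×).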

[2] = tested on: Arabidopsis thaliana T1 plants; test: Isoxaflutole tolerance of transgenic Arabidopsis thaliana T1 plants (spray, bleached leaf area grade, damage score); conditions: for Classification and statistics of the grade of pesticide damage Grade 0 / Classification and statistics of the grade of pesticide damage Grade 1 / Classification and statistics of the grade of pesticide damage Grade 2 / Classification and statistics of the grade of pesticide damage Grade 3: number of plants in grade;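 as to Scores: Weighted damage index from 0 to 100 where higher means more damage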
In short: as §1

[3] = tested on: Arabidopsis thaliana T1 plants; test: Mesotrione tolerance of transgenic Arabidopsis thaliana T1 plants (spray, bleached leaf area grade, damage score); set-up: Scores: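 damage score 0-100 computed as Σ(N×S)/(T×M)×100 over grades 0-3 with higher meaning more damage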; conditions: for Classification and statistics of the grade of pesticide damage Grade 0 / Classification and statistics of the grade of pesticide damage Grade 1 / Classification and statistics of the grade of pesticide damage Grade 2 / Classification and statistics of the grade of pesticide damage Grade 3: number of plants in grade
In short: as §1

| Molecule | Resistance evaluation ([1]; topramezone 25 g ai/ha (1×)) | Classification and statistics of the grade of pesticide damage Grade 0 ([1]; topramezone 25 g ai/ha (1×)) | Classification and statistics of the grade of pesticide damage Grade 1 ([1]; topramezone 25 g ai/ha (1×)) | Classification and statistics of the grade of pesticide damage Grade 2 ([1]; topramezone 25 g ai/ha (1×)) | Classification and statistics of the grade of pesticide damage Grade 3 ([1]; topramezone 25 g ai/ha (1×)) | Scores ([1]; topramezone 25 g ai/ha (1×)) | Resistance evaluation ([1]; topramezone 100 g ai/ha (4×)) | Classification and statistics of the grade of pesticide damage Grade 0 ([1]; topramezone 100 g ai/ha (4×)) | Classification and statistics of the grade of pesticide damage Grade 1 ([1]; topramezone 100 g ai/ha (4×)) | Classification and statistics of the grade of pesticide damage Grade 2 ([1]; topramezone 100 g ai/ha (4×)) | Classification and statistics of the grade of pesticide damage Grade 3 ([1]; topramezone 100 g ai/ha (4×)) | Scores ([1]; topramezone 100 g ai/ha (4×)) | Resistance evaluation ([2]; isoxaflutole 35 g ai/ha) | Scores ([2]; isoxaflutole 35 g ai/ha) | Classification and statistics of the grade of pesticide damage Grade 0 ([2]; isoxaflutole 35 g ai/ha) | Classification and statistics of the grade of pesticide damage Grade 1 ([2]; isoxaflutole 35 g ai/ha) | Classification and statistics of the grade of pesticide damage Grade 2 ([2]; isoxaflutole 35 g ai/ha) | Classification and statistics of the grade of pesticide damage Grade 3 ([2]; isoxaflutole 35 g ai/ha) | Resistance evaluation ([2]; isoxaflutole 70 g ai/ha) | Scores ([2]; isoxaflutole 70 g ai/ha) | other results |
| --- | --- | --- | --- | --- | --- | --- | --- | --- | --- | --- | --- | --- | --- | --- | --- | --- | --- | --- | --- | --- | --- |
| B1 | Non-resistant | 0 | 0 | 0 | 16 | 100 | Non-resistant | 0 | 0 | 0 | 16 | 100 | Non-resistant | 100 | 0 | 0 | 0 | 16 | Non-resistant | 100 | Classification and statistics of the grade of pesticide damage Grade 0 ([2]; isoxaflutole 70 g ai/ha): 0; Classification and statistics of the grade of pesticide damage Grade 1 ([2]; isoxaflutole 70 g ai/ha): 0; Classification and statistics of the grade of pesticide damage Grade 2 ([2]; isoxaflutole 70 g ai/ha): 0; Classification and statistics of the grade of pesticide damage Grade 3 ([2]; isoxaflutole 70 g ai/ha): 16; Resistance evaluation ([3]; mesotrione 52.5 g ai/ha): Non-resistant; Scores ([3]; mesotrione 52.5 g ai/ha): 100; Classification and statistics of the grade of pesticide damage Grade 0 ([3]; mesotrione 52.5 g ai/ha): 0; Classification and statistics of the grade of pesticide damage Grade 1 ([3]; mesotrione 52.5 g ai/ha): 0; Classification and statistics of the grade of pesticide damage Grade 2 ([3]; mesotrione 52.5 g ai/ha): 0; Classification and statistics of the grade of pesticide damage Grade 3 ([3]; mesotrione 52.5 g ai/ha): 16; Resistance evaluation ([3]; mesotrione 105 g ai/ha): Non-resistant; Scores ([3]; mesotrione 105 g ai/ha): 100; Classification and statistics of the grade of pesticide damage Grade 0 ([3]; mesotrione 105 g ai/ha): 0; Classification and statistics of the grade of pesticide damage Grade 1 ([3]; mesotrione 105 g ai/ha): 0; Classification and statistics of the grade of pesticide damage Grade 2 ([3]; mesotrione 105 g ai/ha): 0; Classification and statistics of the grade of pesticide damage Grade 3 ([3]; mesotrione 105 g ai/ha): 16 |
| B2 | Poorly | 4 | 4 | 8 | 0 | 42 | Non-resistant | 0 | 0 | 4 | 12 | 92 | Poorly | 56 | 0 | 9 | 3 | 4 | Non-resistant | 100 | Classification and statistics of the grade of pesticide damage Grade 0 ([2]; isoxaflutole 70 g ai/ha): 0; Classification and statistics of the grade of pesticide damage Grade 1 ([2]; isoxaflutole 70 g ai/ha): 0; Classification and statistics of the grade of pesticide damage Grade 2 ([2]; isoxaflutole 70 g ai/ha): 0; Classification and statistics of the grade of pesticide damage Grade 3 ([2]; isoxaflutole 70 g ai/ha): 16; Resistance evaluation ([3]; mesotrione 52.5 g ai/ha): Poorly resistant; Scores ([3]; mesotrione 52.5 g ai/ha): 63; Classification and statistics of the grade of pesticide damage Grade 0 ([3]; mesotrione 52.5 g ai/ha): 0; Classification and statistics of the grade of pesticide damage Grade 1 ([3]; mesotrione 52.5 g ai/ha): 5; Classification and statistics of the grade of pesticide damage Grade 2 ([3]; mesotrione 52.5 g ai/ha): 8; Classification and statistics of the grade of pesticide damage Grade 3 ([3]; mesotrione 52.5 g ai/ha): 3; Resistance evaluation ([3]; mesotrione 105 g ai/ha): Non-resistant; Scores ([3]; mesotrione 105 g ai/ha): 100; Classification and statistics of the grade of pesticide damage Grade 0 ([3]; mesotrione 105 g ai/ha): 0; Classification and statistics of the grade of pesticide damage Grade 1 ([3]; mesotrione 105 g ai/ha): 0; Classification and statistics of the grade of pesticide damage Grade 2 ([3]; mesotrione 105 g ai/ha): 0; Classification and statistics of the grade of pesticide damage Grade 3 ([3]; mesotrione 105 g ai/ha): 16 |
